Data: the supplement of paper PMC10567573

B1: MYOZ1 (parent)
chain: FSDSSMDHFQKFLPTVGGQLGTAG

Variants of: B1
Assay: protein stability index of a GFP-peptide fusion (GPS, HEK-293T) (PSI 1-6); higher = more stable
Conditions: c terminus: a fixed tail appended
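Note: lentivirally expressed fusions sorted by FACS into six bins by GFP to DsRed ratio, PSI derived from sequencing read proportions per bin multiplied by bin number.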

Variant | protein stability index
FSDSSMDHFTKFLPTVGGQLGTAG | 2.15
FSDSSMDHFQHFLPTVGGQLGTAG | 2.38
FSDSSMDHFQPFLPTVGGQLGTAG | 2.46
FSDSSMDHFQEFLPTVGGQLGTAG | 3.51
FSDSSMDHFQSFLPTVGGQLGTAG | 2.37
FSDSSMDHFQLFLPTVGGQLGTAG | 1.67
FSDSSMDHFQMFLPTVGGQLGTAG | 1.34
FSDSSMDHFQDFLPTVGGQLGTAG | 3.32
FSDSSMDHFQNFLPTVGGQLGTAG | 2.56
FSDSSMDHFQTFLPTVGGQLGTAG | 2.45
FSDSSMDHFQCFLPTVGGQLGTAG | 1.8
FSDSSMDHSQKFLPTVGGQLGTAG | 3.61
FSDSSMDHDQKFLPTVGGQLGTAG | 4.52
FSDSSMDHEQKFLPTVGGQLGTAG | 4.4
FSDSSMDHMQKFLPTVGGQLGTAG | 3.37
FSDSSMDHLQKFLPTVGGQLGTAG | 2.16
FSDSSMDHYQKFLPTVGGQLGTAG | 2.78
FSDSSMDHCQKFLPTVGGQLGTAG | 2.92
NSDSSMDHFQKFLPTVGGQLGTAG | 3.23
ASDSSMDHFQKFLPTVGGQLGTAG | 3.62
HSDSSMDHFQKFLPTVGGQLGTAG | 3.88
WSDSSMDHFQKFLPTVGGQLGTAG | 2.56
SSDSSMDHFQKFLPTVGGQLGTAG | 4.12
MSDSSMDHFQKFLPTVGGQLGTAG | 3.7

Variant | protein stability index
PSDSSMDHFQKFLPTVGGQLGTAG | 3.6
LSDSSMDHFQKFLPTVGGQLGTAG | 3.11
ISDSSMDHFQKFLPTVGGQLGTAG | 2.92
VSDSSMDHFQKFLPTVGGQLGTAG | 3.56
CSDSSMDHFQKFLPTVGGQLGTAG | 2.26
FSDSSMDHFQKFLPTVGGDLGTAG | 2.58
FSDSSMDHFQKFLPTVGGHLGTAG | 1.74
FSDSSMDHFQKFLPTVGGFLGTAG | 1.42
FSDSSMDHFQKFLPTVGGLLGTAG | 2.16
FSDSSMDHFQKFLPTVGGSLGTAG | 2.2
FSDSSMDHFQKFLPTVGGYLGTAG | 2.04
FSDSSMDHFQKFLPTVGGILGTAG | 2.01
FSDSSMDHFQKFLPTVMGQLGTAG | 2.06
FSDSSMDHFQKFLPTVHGQLGTAG | 2.47
FSDSSMDHFQKFLPTVEGQLGTAG | 2.98
FSDSSMDHFQKFLPTVIGQLGTAG | 2.47
FSDSSMDHFQKFLPTVNGQLGTAG | 2.98
FSDSSMDHFQKFLPTVSGQLGTAG | 2.26
FSDSSMDHFQKFLPTVDGQLGTAG | 2.33
FSDSSMDHFQKFLPTVFGQLGTAG | 1.85
FSDSSMDHFQKFLPTVRGQLGTAG | 1.92
FSDSSMDHFQKFLPTVYGQLGTAG | 2.26
FSDSSMDHFQKFLPTVLGQLGTAG | 1.56
FSDSSMDHFQKFLPTIGGQLGTAG | 2.13

Variant | protein stability index
FSDSSMDHFQKFLPTDGGQLGTAG | 2.85
FSDSSMDHFQKFLPTPGGQLGTAG | 2.56
FSDSSMDHFQKFLPTRGGQLGTAG | 2.46
FSDSSMDHFQKFLPTEGGQLGTAG | 4.23
FSDSSMDHFQKFLPTQGGQLGTAG | 3.19
FSDSSMDHFQKFLPTAGGQLGTAG | 3.19
FSDSSMGHFQKFLPTVGGQLGTAG | 1.44
FSDSSMEHFQKFLPTVGGQLGTAG | 2.02
FSDSSMLHFQKFLPTVGGQLGTAG | 1.55
FSDSSMPHFQKFLPTVGGQLGTAG | 2.38
FSDSSMRHFQKFLPTVGGQLGTAG | 2.6
FSDSSMTHFQKFLPTVGGQLGTAG | 2.15
FSDSSMDHFQKYLPTVGGQLGTAG | 2.77
FSDSSMDHFQKDLPTVGGQLGTAG | 4.08
FSDSSMDHFQKLLPTVGGQLGTAG | 2.88
FSDSSMDHFQKNLPTVGGQLGTAG | 3.68
FSDSSMDHFQKELPTVGGQLGTAG | 4.6
FSDSSMDHFQKHLPTVGGQLGTAG | 3.28
FSDSSMDHFQKILPTVGGQLGTAG | 2.08
FSWSSMDHFQKFLPTVGGQLGTAG | 2.06
FSQSSMDHFQKFLPTVGGQLGTAG | 2.27
FSYSSMDHFQKFLPTVGGQLGTAG | 2.02
FSMSSMDHFQKFLPTVGGQLGTAG | 1.45
FSLSSMDHFQKFLPTVGGQLGTAG | 1.55

Variant | protein stability index
FSPSSMDHFQKFLPTVGGQLGTAG | 1.56
FSFSSMDHFQKFLPTVGGQLGTAG | 1.94
FSNSSMDHFQKFLPTVGGQLGTAG | 1.67
FSDSSMDHFQKFLNTVGGQLGTAG | 1.47
FSDSSMDHFQKFLGTVGGQLGTAG | 1.58
FSDSSMDHFQKFLPTVGGQLGTAC | 1.95
FSDSSMDHFQKFLPTVGGQLGTAH | 2.33
FSDSSMDHFQKFLPTVGGQLGTAR | 2.22
FSDSSMDHFQKFLPTVGGQLGTAM | 1.92
FSDSSMDHFQKFLPTVGGQLGTAP | 2.25
FSDSSMDHFQKFLPTVGGQLGTAL | 2.36
FSDSSMDHFQKFLPTVGGQLGTAI | 1.54
FSDSSMDHFQKFLPTVGGQLGTAE | 2.54
FSDSSMDHFQKFLPTVGGQLGTAN | 2.03
FSDSSYDHFQKFLPTVGGQLGTAG | 2.32
FSDSSDDHFQKFLPTVGGQLGTAG | 3.22
FSDSSGDHFQKFLPTVGGQLGTAG | 2.86
FSDSSHDHFQKFLPTVGGQLGTAG | 2.25
FSDSSCDHFQKFLPTVGGQLGTAG | 1.96
FSDSSWDHFQKFLPTVGGQLGTAG | 1.44
FSDSSIDHFQKFLPTVGGQLGTAG | 2.04
FSDSSFDHFQKFLPTVGGQLGTAG | 3.55
